The record followed here is patent publication US20230293649A1 (BIOVENTURES, published 2023).

The target of data set [1] is T1, cathepsin K (Cathepsin K Drug Discovery Kit, Enzo Life Sciences) (UniProt P43235 115-329, limits assumed).
T1 construct: also called CTSK; CatK
T1 sequence (looked up): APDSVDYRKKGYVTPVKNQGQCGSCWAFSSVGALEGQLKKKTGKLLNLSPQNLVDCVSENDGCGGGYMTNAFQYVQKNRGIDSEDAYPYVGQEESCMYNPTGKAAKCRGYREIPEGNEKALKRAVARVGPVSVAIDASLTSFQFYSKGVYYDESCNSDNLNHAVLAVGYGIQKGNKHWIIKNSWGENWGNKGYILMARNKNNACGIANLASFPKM
As to the kind of experiment: inhibition of cathepsin K cleavage of the fluorogenic substrate Z-Phe-Arg-AMC; non-linear regression of initial rates. On the procedure: The ability of recombinant CST6 (R&D Systems, Minneapolis, MN) to inhibit cathepsin K protease activity was assessed using the Cathepsin K Drug Discovery Kit (Enzo Life Sciences International, Plymouth Meeting, PA). Fluorimetric assays were done in triplicate in 96-well microtitre plates using cathepsin K, the fluorogenic synthetic substrate Z-Phe-Arg-AMC in the presence of the cathepsin K assay buffer. Inhibitory activity of CST6 towards cathepsin K was measured in serum-free conditioned media from the H929 cell line stably infected with pWPI or CST6 lentivirus. Conditioned media equating to 25 μg was added to each well and inhibitory activity was evaluated by measuring the residual enzyme activity. Recombinant CST6 was added to assays at various concentrations and the resultant fluorescence was measured using a SpectraMax M2 microplate reader (Molecular Devices, Sunnyvale, CA) with excitation at 380 nm and emission at 460 nm wavelengths. The initial rates from the CatK progress curves in the presence of predetermined concentrations of recombinant CST6 were subjected to non-linear regression analysis (Morrison and Walsh, 1988) using GraFit® software (Erithacus Software Limited, Surrey, UK) to determine the inhibition constant (Ki).

The target of data set [2] is T2, recombinant CST6 (R&D Systems, Minneapolis, MN), Q15828.
T2 chain: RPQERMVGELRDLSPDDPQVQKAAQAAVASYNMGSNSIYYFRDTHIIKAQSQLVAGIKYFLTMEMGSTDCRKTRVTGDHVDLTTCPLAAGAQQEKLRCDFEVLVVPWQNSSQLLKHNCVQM

The target in a further data set is T3, N-cadherin, P19022.
T3 chain: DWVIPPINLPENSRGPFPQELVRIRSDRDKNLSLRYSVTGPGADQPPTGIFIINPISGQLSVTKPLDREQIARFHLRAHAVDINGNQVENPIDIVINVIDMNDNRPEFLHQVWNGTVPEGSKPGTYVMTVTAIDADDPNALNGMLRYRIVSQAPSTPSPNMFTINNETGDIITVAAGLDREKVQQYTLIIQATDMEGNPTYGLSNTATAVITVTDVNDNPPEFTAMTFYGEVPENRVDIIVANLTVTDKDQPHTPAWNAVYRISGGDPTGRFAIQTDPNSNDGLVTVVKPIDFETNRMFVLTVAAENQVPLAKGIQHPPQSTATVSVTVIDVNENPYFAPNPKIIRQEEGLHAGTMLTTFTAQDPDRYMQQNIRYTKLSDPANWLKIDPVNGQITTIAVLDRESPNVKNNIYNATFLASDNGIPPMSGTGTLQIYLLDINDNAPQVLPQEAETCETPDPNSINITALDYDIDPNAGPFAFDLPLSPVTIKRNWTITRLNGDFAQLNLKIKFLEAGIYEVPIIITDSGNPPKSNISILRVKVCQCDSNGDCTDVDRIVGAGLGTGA

A further data set addresses T4, E-cadherin, P12830.
T4 chain: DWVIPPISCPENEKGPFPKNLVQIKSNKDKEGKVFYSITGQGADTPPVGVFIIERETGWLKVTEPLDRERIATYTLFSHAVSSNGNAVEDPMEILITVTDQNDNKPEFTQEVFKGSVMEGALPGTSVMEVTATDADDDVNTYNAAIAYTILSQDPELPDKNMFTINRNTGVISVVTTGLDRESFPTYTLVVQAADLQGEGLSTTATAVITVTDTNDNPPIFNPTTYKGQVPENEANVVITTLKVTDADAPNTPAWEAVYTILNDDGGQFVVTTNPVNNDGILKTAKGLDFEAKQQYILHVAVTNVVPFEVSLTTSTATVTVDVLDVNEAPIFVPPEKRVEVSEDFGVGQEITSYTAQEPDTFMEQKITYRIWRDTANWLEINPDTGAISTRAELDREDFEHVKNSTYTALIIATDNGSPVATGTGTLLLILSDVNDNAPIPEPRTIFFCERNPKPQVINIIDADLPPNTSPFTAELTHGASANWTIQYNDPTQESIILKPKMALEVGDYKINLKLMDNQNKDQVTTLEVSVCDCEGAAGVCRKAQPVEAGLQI

B1: recombinant CST6 (R&D Systems, Minneapolis, MN) (other, UniProt Q15828 29-149, looked up)
chain: RPQERMVGELRDLSPDDPQVQKAAQAAVASYNMGSNSIYYFRDTHIIKAQSQLVAGIKYFLTMEMGSTDCRKTRVTGDHVDLTTCPLAAGAQQEKLRCDFEVLVVPWQNSSQLLKHNCVQM
notes: also called recombinant cystatin E/M; cystatin M/E
The term Ki denotes a measure of affinity in units of concentration, obtained from inhibition or displacement. On to B1, for which, in data set [1], the Ki was 3.84 nM.

B2: cathepsin K (Cathepsin K Drug Discovery Kit, Enzo Life Sciences) (protein)
chain: APDSVDYRKKGYVTPVKNQGQCGSCWAFSSVGALEGQLKKKTGKLLNLSPQNLVDCVSENDGCGGGYMTNAFQYVQKNRGIDSEDAYPYVGQEESCMYNPTGKAAKCRGYREIPEGNEKALKRAVARVGPVSVAIDASLTSFQFYSKGVYYDESCNSDNLNHAVLAVGYGIQKGNKHWIIKNSWGENWGNKGYILMARNKNNACGIANLASFPKM
With B2, in data set [2], the “cleavage of E- and N-cadherin by cathepsin K (in vitro assay)” value is given as “the addition of recombinant Cst6 can inhibit this cleavage”. Also, the “cleavage of N-cadherin (in vitro assay)” value with N-cadherin, P19022 is “cathepsin K can cleave E- and N-cadherin using an in vitro assay”. The “cleavage of E-cadherin (in vitro assay)” value with E-cadherin, P12830 was “cathepsin K can cleave E- and N-cadherin using an in vitro assay”.
